Assay results from patent CN109678963A (UNIV CHINA PHARMA, dated 2019).

B1: 抗CD24人源化嵌合抗体cG7 (antibody, V domains shown)
VH: QVKLEESGGGLVQPGGSLKISCAASGFDFSRYWMSWVRQAPGKGLEWIGEINPDSSTINYTPSLRDKFIISRDNAKNTLYLQMSKVRYEDTSLYYCARQGDYWGQGTSVTVSS
VL: not shown
B2: 靶向CD24的双特异性抗体cG7-MICA (anti-CD24 humanized chimeric antibody cG7 fused at the heavy chain C-terminus to the human MICA extracellular domains 1-3) (bispecific antibody)
heavy: not shown
light: DIVMTQTPLSLSVTIGQPASISCKSSQSLLHSDGKTYLNWLLQRPGQSPKRLIYLVSKLDSGVPDRFTGSGSGTDFTLKVSRVEAEDLGVYYCWQGAHFPYTFGGGTKLEIKVDTVAAPSVFIFPPSDEQLKSGTASVVCLLNNFYPREAKVQWKVDNALQSGNSQESVTEQDSKDSTYSLSSTLTLSKADYEKHKVYACEVTHQGLSSPVTKSFNRGEC
notes: Expressed in CHO-s, purified on Protein A, about 210 kD

Tests used:
[1] = target: T1, CD24裸肽 (CD24 naked peptide) (human, UniProt P25063 27-59, limits assumed); experiment: SPR, Biacore X100; antibody captured by anti-human IgG(Fc) on a CM5 chip, CD24 naked peptide as analyte (100-0.39 nM), 25 C
T1 construct: also called 抗原CD24
T1 peptide (looked up): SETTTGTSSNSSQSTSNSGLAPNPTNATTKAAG

[2] = target: T2, 重组人rNKG2D分子 (recombinant human NKG2D) (human, UniProt P26718 78-216, limits assumed); experiment: SPR, Biacore X100; cG7-MICA captured by anti-human IgG(Fc) on a CM5 chip, recombinant human rNKG2D as analyte (100-6.25 nM)
T2 construct: Used as SPR analyte; source and construct are not described
T2 sequence (looked up): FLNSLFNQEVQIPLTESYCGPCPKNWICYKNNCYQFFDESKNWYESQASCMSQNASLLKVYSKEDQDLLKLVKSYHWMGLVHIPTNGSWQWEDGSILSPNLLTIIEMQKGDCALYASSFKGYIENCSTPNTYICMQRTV

Binder | Kd [1] [nM] | koff [1] [s⁻¹] | kon [1] [M⁻¹ s⁻¹] | Kd [2] [nM] | koff [2] [s⁻¹] | kon [2] [M⁻¹ s⁻¹]
B1 | 0.191 | 0.000336 | 1.76e+06 |  |  | 
B2 | 0.242 | 0.000339 | 1.4e+06 | 576 | 0.0015 | 2620
